Assay: First-order nonenzymatic deamidation of pentapeptides in Tris buffer
Format: physicochemical
Conditions: pH 7.4, 37.0° C., 0.15 M Tris HCl; Asn pentapeptides
In short: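 First-order deamidation rates determined for XxxAsnYyy and XxxGlnYyy pentapeptides in 0.15 M Tris buffer, pH 7.4, 37° C. Not all values were measured directly: several Asn rates were estimated and most Gln rates came from surface fitting.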

Compared with “GlyTyrAsnAlaGly (GYNAG; printed: GlyTyrAsnAlaGly)”, GlyTyrAsnAmCysGly is higher in “First-Order Deamidation Halftimes of GlyXxxAsnYyyGly” value: 24.3 days for the first, 33.3 days for the second.

Going from “GlyTyrAsnArgGly (GYNRG; printed: GlyTyrAsnArgGly)” to “GlyTyrAsnAspGly (GYNDG; printed: GlyTyrAsnAspGly)”, the “First-Order Deamidation Halftimes of GlyXxxAsnYyyGly” value falls from 56.9 days to 28.4 days.

Compared with “GlyTyrAsnCysGly (GYNCG; printed: GlyTyrAsnCysGly)”, “GlyTyrAsnGluGly (GYNEG; printed: GlyTyrAsnGluGly)” is lower in “First-Order Deamidation Halftimes of GlyXxxAsnYyyGly” value: 48.6 days for the first, 41.0 days for the second.

First: GlyTyrAsnGlyGly (GYNGG; printed: GlyTyrAsnGlyGly)
Second: GlyTyrAsnHisGly (GYNHG; printed: GlyTyrAsnHisGly)
The “First-Order Deamidation Halftimes of GlyXxxAsnYyyGly” value of the first is lower: 1.49 days for the first, 10.2 days for the second.

Going from “GlyTyrAsnIleGly (GYNIG; printed: GlyTyrAsnIleGly)” to “GlyTyrAsnLeuGly (GYNLG; printed: GlyTyrAsnLeuGly)”, the “First-Order Deamidation Halftimes of GlyXxxAsnYyyGly” value falls from 306 days to 118 days.

Compared with “GlyTyrAsnLysGly (GYNKG; printed: GlyTyrAsnLysGly)”, “GlyTyrAsnMetGly (GYNMG; printed: GlyTyrAsnMetGly)” is higher in “First-Order Deamidation Halftimes of GlyXxxAsnYyyGly” value: 55.1 days for the first, 64.3 days for the second.

First: GlyTyrAsnPheGly (GYNFG; printed: GlyTyrAsnPheGly)
Second: GlyTyrAsnProGly (GYNPG; printed: GlyTyrAsnProGly)
The “First-Order Deamidation Halftimes of GlyXxxAsnYyyGly” value of the first is lower: 58.0 days for the first, 9830 days for the second.

First: GlyTyrAsnSerGly (GYNSG; printed: GlyTyrAsnSerGly)
Second: GlyTyrAsnThrGly (GYNTG; printed: GlyTyrAsnThrGly)
The “First-Order Deamidation Halftimes of GlyXxxAsnYyyGly” value of the first is lower: 11.9 days for the first, 38.1 days for the second.

First: GlyTyrAsnTrpGly (GYNWG; printed: GlyTyrAsnTrpGly)
Second: GlyTyrAsnTyrGly (GYNYG; printed: GlyTyrAsnTyrGly)
The “First-Order Deamidation Halftimes of GlyXxxAsnYyyGly” value of the first is higher: 120 days for the first, 70.6 days for the second.

Compared with “GlyTyrAsnValGly (GYNVG; printed: GlyTyrAsnValGly)”, “GlyValAsnAlaGly (GVNAG; printed: GlyValAsnAlaGly)” is lower in “First-Order Deamidation Halftimes of GlyXxxAsnYyyGly” value: 241 days for the first, 27.5 days for the second.

First: GlyValAsnAmCysGly
Second: GlyValAsnArgGly (GVNRG; printed: GlyValAsnArgGly)
The “First-Order Deamidation Halftimes of GlyXxxAsnYyyGly” value of the first is lower: 34.7 days for the first, 67.4 days for the second.

First: GlyValAsnAspGly (GVNDG; printed: GlyValAsnAspGly)
Second: GlyValAsnCysGly (GVNCG; printed: GlyValAsnCysGly)
The “First-Order Deamidation Halftimes of GlyXxxAsnYyyGly” value of the first is lower: 33.5 days for the first, 63.2 days for the second.

Compared with “GlyValAsnGluGly (GVNEG; printed: GlyValAsnGluGly)”, “GlyValAsnGlyGly (GVNGG; printed: GlyValAsnGlyGly)” is lower in “First-Order Deamidation Halftimes of GlyXxxAsnYyyGly” value: 64.8 days for the first, 1.23 days for the second.

Compared with “GlyValAsnHisGly (GVNHG; printed: GlyValAsnHisGly)”, “GlyValAsnIleGly (GVNIG; printed: GlyValAsnIleGly)” is higher in “First-Order Deamidation Halftimes of GlyXxxAsnYyyGly” value: 10.2 days for the first, 366 days for the second.

First: GlyValAsnLeuGly (GVNLG; printed: GlyValAsnLeuGly)
Second: GlyValAsnLysGly (GVNKG; printed: GlyValAsnLysGly)
The “First-Order Deamidation Halftimes of GlyXxxAsnYyyGly” value of the first is higher: 154 days for the first, 63.8 days for the second.

First: GlyValAsnMetGly (GVNMG; printed: GlyValAsnMetGly)
Second: GlyValAsnPheGly (GVNFG; printed: GlyValAsnPheGly)
The “First-Order Deamidation Halftimes of GlyXxxAsnYyyGly” value of the first is lower: 65.7 days for the first, 66.6 days for the second.

First: GlyValAsnProGly (GVNPG; printed: GlyValAsnProGly)
Second: GlyValAsnSerGly (GVNSG; printed: GlyValAsnSerGly)
The “First-Order Deamidation Halftimes of GlyXxxAsnYyyGly” value of the first is higher: 8030 days for the first, 18.2 days for the second.

Going from “GlyValAsnThrGly (GVNTG; printed: GlyValAsnThrGly)” to “GlyValAsnTrpGly (GVNWG; printed: GlyValAsnTrpGly)”, the “First-Order Deamidation Halftimes of GlyXxxAsnYyyGly” value rises from 49.9 days to 88.9 days.

First: GlyValAsnTyrGly (GVNYG; printed: GlyValAsnTyrGly)
Second: GlyValAsnValGly (GVNVG; printed: GlyValAsnValGly)
The “First-Order Deamidation Halftimes of GlyXxxAsnYyyGly” value of the first is lower: 79.2 days for the first, 291 days for the second.

Same assay, conditions: pH 7.4, 37.0 ° C., 0.15 M Tris HCl; Gln pentapeptides; 52 values measured, rest derived from surface fitting

Compared with “GlyTrpGlnLysGly (GWQKG; printed: GlyTrpGlnLysGly)”, “GlyTrpGlnMetGly (GWQMG; printed: GlyTrpGlnMetGly)” is lower in “First-Order Deamidation Halftimes of GlyXxxGlnYyyGly” value: 7600 days for the first, 5300 days for the second.

Going from “GlyTrpGlnPheGly (GWQFG; printed: GlyTrpGlnPheGly)” to “GlyTrpGlnProGly (GWQPG; printed: GlyTrpGlnProGly)”, the “First-Order Deamidation Halftimes of GlyXxxGlnYyyGly” value rises from 8600 days to 11000 days.

Compared with “GlyTrpGlnSerGly (GWQSG; printed: GlyTrpGlnSerGly)”, “GlyTrpGlnThrGly (GWQTG; printed: GlyTrpGlnThrGly)” is lower in “First-Order Deamidation Halftimes of GlyXxxGlnYyyGly” value: 6500 days for the first, 5600 days for the second.

Compared with “GlyTrpGlnTrpGly (GWQWG; printed: GlyTrpGlnTrpGly)”, “GlyTrpGlnTyrGly (GWQYG; printed: GlyTrpGlnTyrGly)” is lower in “First-Order Deamidation Halftimes of GlyXxxGlnYyyGly” value: 19000 days for the first, 14000 days for the second.

First: GlyTrpGlnValGly (GWQVG; printed: GlyTrpGlnValGly)
Second: GlyTyrGlnAlaGly (GYQAG; printed: GlyTyrGlnAlaGly)
The “First-Order Deamidation Halftimes of GlyXxxGlnYyyGly” value of the first is higher: 8200 days for the first, 7300 days for the second.

Compared with “GlyTyrGlnArgGly (GYQRG; printed: GlyTyrGlnArgGly)”, “GlyTyrGlnAspGly (GYQDG; printed: GlyTyrGlnAspGly)” is higher in “First-Order Deamidation Halftimes of GlyXxxGlnYyyGly” value: 8100 days for the first, 8600 days for the second.

First: GlyTyrGlnCysGly (GYQCG; printed: GlyTyrGlnCysGly)
Second: GlyTyrGlnGluGly (GYQEG; printed: GlyTyrGlnGluGly)
The “First-Order Deamidation Halftimes of GlyXxxGlnYyyGly” value of the first is lower: 2200 days for the first, 8300 days for the second.

Going from “GlyTyrGlnGlyGly (GYQGG; printed: GlyTyrGlnGlyGly)” to “GlyTyrGlnHisGly (GYQHG; printed: GlyTyrGlnHisGly)”, the “First-Order Deamidation Halftimes of GlyXxxGlnYyyGly” value rises from 850 days to 7400 days.

Going from “GlyTyrGlnIleGly (GYQIG; printed: GlyTyrGlnIleGly)” to “GlyTyrGlnLeuGly (GYQLG; printed: GlyTyrGlnLeuGly)”, the “First-Order Deamidation Halftimes of GlyXxxGlnYyyGly” value falls from 7900 days to 7800 days.

First: GlyTyrGlnLysGly (GYQKG; printed: GlyTyrGlnLysGly)
Second: GlyTyrGlnMetGly (GYQMG; printed: GlyTyrGlnMetGly)
The “First-Order Deamidation Halftimes of GlyXxxGlnYyyGly” value of the first is higher: 7500 days for the first, 5300 days for the second.

Compared with “GlyTyrGlnPheGly (GYQFG; printed: GlyTyrGlnPheGly)”, “GlyTyrGlnProGly (GYQPG; printed: GlyTyrGlnProGly)” is higher in “First-Order Deamidation Halftimes of GlyXxxGlnYyyGly” value: 8700 days for the first, 11000 days for the second.

Going from “GlyTyrGlnSerGly (GYQSG; printed: GlyTyrGlnSerGly)” to “GlyTyrGlnThrGly (GYQTG; printed: GlyTyrGlnThrGly)”, the “First-Order Deamidation Halftimes of GlyXxxGlnYyyGly” value falls from 6400 days to 5600 days.

Compared with “GlyTyrGlnTrpGly (GYQWG; printed: GlyTyrGlnTrpGly)”, “GlyTyrGlnTyrGly (GYQYG; printed: GlyTyrGlnTyrGly)” is lower in “First-Order Deamidation Halftimes of GlyXxxGlnYyyGly” value: 18000 days for the first, 14000 days for the second.

First: GlyTyrGlnValGly (GYQVG; printed: GlyTyrGlnValGly)
Second: GlyValGlnAlaGly (GVQAG; printed: GlyValGlnAlaGly)
The “First-Order Deamidation Halftimes of GlyXxxGlnYyyGly” value of the first is higher: 8000 days for the first, 4500 days for the second.

Compared with “GlyValGlnArgGly (GVQRG; printed: GlyValGlnArgGly)”, “GlyValGlnAspGly (GVQDG; printed: GlyValGlnAspGly)” is higher in “First-Order Deamidation Halftimes of GlyXxxGlnYyyGly” value: 6100 days for the first, 7000 days for the second.

First: GlyValGlnCysGly (GVQCG; printed: GlyValGlnCysGly)
Second: GlyValGlnGluGly (GVQEG; printed: GlyValGlnGluGly)
The “First-Order Deamidation Halftimes of GlyXxxGlnYyyGly” value of the first is lower: 1300 days for the first, 6500 days for the second.

Compared with “GlyValGlnGlyGly (GVQGG; printed: GlyValGlnGlyGly)”, “GlyValGlnHisGly (GVQHG; printed: GlyValGlnHisGly)” is higher in “First-Order Deamidation Halftimes of GlyXxxGlnYyyGly” value: 640 days for the first, 5000 days for the second.

Going from “GlyValGlnIleGly (GVQIG; printed: GlyValGlnIleGly)” to “GlyValGlnLeuGly (GVQLG; printed: GlyValGlnLeuGly)”, the “First-Order Deamidation Halftimes of GlyXxxGlnYyyGly” value falls from 5600 days to 5500 days.

Going from “GlyValGlnLysGly (GVQKG; printed: GlyValGlnLysGly)” to “GlyValGlnMetGly (GVQMG; printed: GlyValGlnMetGly)”, the “First-Order Deamidation Halftimes of GlyXxxGlnYyyGly” value falls from 5200 days to 4200 days.

Compared with “GlyValGlnPheGly (GVQFG; printed: GlyValGlnPheGly)”, “GlyValGlnProGly (GVQPG; printed: GlyValGlnProGly)” is higher in “First-Order Deamidation Halftimes of GlyXxxGlnYyyGly” value: 7200 days for the first, 8500 days for the second.

Compared with “GlyValGlnSerGly (GVQSG; printed: GlyValGlnSerGly)”, “GlyValGlnThrGly (GVQTG; printed: GlyValGlnThrGly)” is lower in “First-Order Deamidation Halftimes of GlyXxxGlnYyyGly” value: 4400 days for the first, 4300 days for the second.
